Data: paper PMC3949746

How the values were obtained:
[1] = target: ribulose-1,5-bisphosphate carboxylase/oxygenase (RuBisCO) large subunit of Serratia sp. ISTD04 (Serratia sp. ISTD04 (endogenous)); experiment: SEC; native RuBisCO purified from Serratia sp. ISTD04, Superdex 200 FPLC gel filtration in buffer A (200 mM Tris-Cl, 10 mM MgCl2, 132 mM KHCO3, 10 mM DTT, ATP, pH 7.8), 0.5 ml/min, 4°C; subunits of the eluted enzyme shown by SDS-PAGE (12%)
[2] = target: ribulose-1,5-bisphosphate carboxylase/oxygenase (RuBisCO) small subunit of Serratia sp. ISTD04 (Serratia sp. ISTD04 (endogenous)); experiment: as above

Substance	stoichiometry N [1]	stoichiometry N [2]
ribulose-1,5-bisphosphate carboxylase/oxygenase (RuBisCO) large subunit of Serratia sp. ISTD04 (natural protein)	8	
ribulose-1,5-bisphosphate carboxylase/oxygenase (RuBisCO) small subunit of Serratia sp. ISTD04 (natural protein)		8
